# According to patent US20040171050A1 (PHARMACIA AND UPJOHN, published 2004):
# Molecular target: the molecule itself
# Experiment: gel filtration (Superose 200); dynamic light scattering with MgCl2 also gave a monodisperse, dimeric sample; homodimer self-association
protein,measurement,value
"recombinant S. aureus thymidylate kinase (with polyhistidine [his6] sequence tag) (enzyme, Expressed in E. coli with a His6 tag; The crystals used for the structure were of the selenomethionine analogue (methionines replaced by selenomethionine); Gel filtration and light scattering appear to have used the native protein; also called S. aureus TMK; T. kinase) MGSAFITFEGPEGSGKTTVINEVYHRLVKDYDVIMTREPGGVPTGEEIRKIVLEGNDMDIRTEAMLFAASRREHLVLKVIPALKEGKVVLCDRYIDSSLAYQGYARGIGVEEVRALNEFAINGLYPDLTIYLNVSAEVGRERIIKNSRDQNRLDQEDLKFHEKVIEGYQEIIHNESQRFKSVNADQPLENVVEDTYQTIIKYLEKIRSHHHHHH",binding result,binds
